In data set [1] the test system is HeLa Kyoto. The data set can be described thus: solubility change mitosis vs G1/S (difference of NP-40 vs SDS log2 ratios) (log2 ratio difference); higher = more soluble in mitosis.
Data set [2] deals with HeLa Kyoto. As to the kind of experiment: solubility in G1/S (NP-40 vs SDS abundance) (log2 ratio); higher = more soluble. The settings on record: cell cycle stage: G1/S.
The subject of data set [3] is HeLa Kyoto. The data set can be described thus: thermal stability score vs G1/S (z-score of summed log2 fold changes over temperatures); higher = more thermally stable than in G1/S.
Data set [4] has as its system HeLa Kyoto. As to the kind of experiment: melting temperature (median over replicates), in situ; higher = more thermally stable.
Where [5] appears, read: cell cycle stage: early G1 (4.5 h after nocodazole release).
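Throughout, for melting temperature (median over replicates), in situ: HeLa Kyoto cells synchronized by double thymidine or nocodazole block, proteins quantified by TMT10plex mass spectrometry, three independent biological replicates.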
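Throughout, for solubility change mitosis vs G1/S (difference of NP-40 vs SDS log2 ratios): synchronized HeLa Kyoto cells (double thymidine block for G1/S, nocodazole release for mitosis), protein amounts in NP-40 versus SDS lysates quantified by mass spectrometry, three biological replicates.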
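Throughout, for solubility in G1/S (NP-40 vs SDS abundance): HeLa Kyoto cells arrested at G1/S by double thymidine block, proteins quantified by TMT10plex mass spectrometry in mild NP-40 versus SDS extracts, three biological replicates.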
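Throughout, for thermal stability score vs G1/S (z-score of summed log2 fold changes over temperatures): synchronized HeLa Kyoto cells, proteins quantified by TMT10plex mass spectrometry, three biological replicates, mitosis taken 0.5 h after nocodazole release, G1/S directly after double thymidine block.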

With “MEEASEGGGNDRVRNLQSEVEGVKNIMTQNVERILARGENLEHLRNKTEDLEATSEHFKTTSQKVARKFWWKNVKMIVLICVIVFIIILFIVLFATGAFS [VAMP8]”, the “solubility change mitosis (log2)” value with HeLa Kyoto [1] was 0.136. Moreover, the “solubility in G1/S (log2)” value in the data set with HeLa Kyoto [2] was -0.136. The thermal stability score was -3.17 in the data set on HeLa Kyoto [3] (setting [5]) and -6.62 with HeLa Kyoto [3] (cell cycle stage: mitosis). Besides, the melting temperature in the data set with HeLa Kyoto [4] (cell cycle stage: G1/S) worked out at 57.8 °C; in the data set on HeLa Kyoto [4] (cell cycle stage: mitosis) it was 55.5 °C.
Take “MEEECRVLSIQSHVIRGYVGNRAATFPLQVLGFEIDAVNSVQFSNHTGYAHWKGQVLNSDELQELYEGLRLNNMNKYDYVLTGYTRDKSFLAMVVDIVQELKQQNPRLVYVCDPVLGDKWDGEGSMYVPEDLLPVYKEKVVPLADIITPNQFEAELLSGRKIHSQEEALRVMDMLHSMGPDTVVITSSDLPSPQGSNYLIVLGSQRRRNPAGSVVMERIRMDIRKVDAVFVGTGDLFAAMLLAWTHKHPNNLKVACEKTVSTLHHVLQRTIQCAKAQAGEGVRPSPMQLELRMVQSKRDIEDPEIVVQATVL [PDXK]”: the “solubility change mitosis (log2)” value with HeLa Kyoto [1] was -0.0576. For the same sequence, in the data set with HeLa Kyoto [2], the “solubility in G1/S (log2)” value amounted to 0.315. The values for the thermal stability score in the data set with HeLa Kyoto [3] (setting [5]) and in the data set with HeLa Kyoto [3] (cell cycle stage: mitosis) were 0.134 and 0.0482, respectively. Besides, the melting temperature in the data set on HeLa Kyoto [4] (cell cycle stage: G1/S) came out at 55.5 °C; in the data set on HeLa Kyoto [4] (cell cycle stage: mitosis), 56.3 °C.
Regarding “MEEIYAKFVSQKISKTRWRPLPPGSLQTAETFATGSWDNEENYISLWSIGDFGNLDSDGGFEGDHQLLCDIRHHGDVMDLQFFDQERIVAASSTGCVTVFLHHPNNQTLSVNQQWTTAHYHTGPGSPSYSSAPCTGVVCNNPEIVTVGEDGRINLFRADHKEAVRTIDNADSSTLHAVTFLRTPEILTVNSIGQLKIWDFRQQGNEPSQILSLTGDRVPLHCVDRHPNQQHVVATGGQDGMLSIWDVRQGTMPVSLLKAHEAEMWEVHFHPSNPEHLFTCSEDGSLWHWDASTDVPEKSSLFHQGGRSSTFLSHSISNQANVHQSVISSWLSTDPAKDRIEITSLLPSRSLSVNTLDVLGPCLVCGTDAEAIYVTRHLFS [NUP43]”, in the data set on HeLa Kyoto [1], the “solubility change mitosis (log2)” value amounted to 0.0611. The “solubility in G1/S (log2)” value in the data set on HeLa Kyoto [2] was -0.175. Further, the thermal stability score in the data set with HeLa Kyoto [3] (setting [5]) is -1.7; with HeLa Kyoto [3] (cell cycle stage: mitosis) it was -3.31. Also, the melting temperature in the data set on HeLa Kyoto [4] (cell cycle stage: G1/S) and with HeLa Kyoto [4] (cell cycle stage: mitosis) was 53.1 °C in each case.
On to “MEEKPGQPQPQHHHSHHHPHHHPQQQQQQPHHHHHYYFYNHSHNHHHHHHHQQPHQYLQHGAEGSPKAQPKPLKHEQKHTLQQHQETPKKKTGYGELNGNAGEREISLKNLSSDEATNPISRVLNGNQQVVDTSLKQTVKANTFGKAGIKTKNFIQKNSMDKKNGKSYENKSGENQSVDKSDTIPIPNGVVTNNSGYITNGYMGKGADNDGSGSESGYTTPKKRKARRNSAKGCENLNIVQDKIMQQETSVPTLKQGLETFKPDYSEQKGNRVDGSKPIWKYETGPGGTSRGKPAVGDMLRKSSDSKPGVSSKKFDDRPKGKHASAVASKEDSWTLFKPPPVFPVDNSSAKIVPKISYASKVKENLNKTIQNSSVSPTSSSSSSSSTGETQTQSSSRLSQVPMSALKSVTSANFSNGPVLAGTDGNVYPPGGQPLLTTAANTLTPISSGTDSVLQDMSLTSAAVEQIKTSLFIYPSNMQTMLLSTAQVDLPSQTDQQNLGDIFQNQWGLSFINEPSAGPETVTGKSSEHKVMEVTFQGEYPATLVSQGAEIIPSGTEHPVFPKAYELEKRTSPQVLGSILKSGTTSESGALSLEPSHIGDLQKADTSSQGALVFLSKDYEIESQNPLASPTNTLLGSAKEQRYQRGLERNDSWGSFDLRAAIVYHTKEMESIWNLQKQDPKRIITYNEAMDSPDQ [NUFIP2]”, for which the “solubility change mitosis (log2)” value in the data set on HeLa Kyoto [1] came to 0.593. In addition, the “solubility in G1/S (log2)” value in the data set with HeLa Kyoto [2] was -0.731. Besides, the thermal stability score with HeLa Kyoto [3] (setting [5]) is -0.0647; in the data set with HeLa Kyoto [3] (cell cycle stage: mitosis), -0.912. In addition, the melting temperature in the data set with HeLa Kyoto [4] (cell cycle stage: G1/S) came out at 53.8 °C; in the data set on HeLa Kyoto [4] (cell cycle stage: mitosis) it was 52.4 °C.
In the case of “MEELIVELRLFLELLDHEYLTSTVREKKAVITNILLRIQSSKGFDVKDHAQKQETANSLPAPPQMPLPEIPQPWLPPDSGPPPLPTSSLPEGYYEEAVPLSPGKAPEYITSNYDSDAMSSSYESYDEEEEDGKGKKTRHQWPSEEASMDLVKDAKICAFLLRKKRFGQWTKLLCVIKDTKLLCYKSSKDQQPQMELPLQGCNITYIPKDSKKKKHELKITQQGTDPLVLAVQSKEQAEQWLKVIKEAYSGCSGPVDSECPPPPSSPVHKAELEKKLSSERPSSDGEGVVENGITTCNGKEQVKRKKSSKSEAKGTVSKVTGKKITKIISLGKKKPSTDEQTSSAEEDVPTCGYLNVLSNSRWRERWCRVKDNKLIFHKDRTDLKTHIVSIPLRGCEVIPGLDSKHPLTFRLLRNGQEVAVLEASSSEDMGRWIGILLAETGSSTDPEALHYDYIDVEMSASVIQTAKQTFCFMNRRVISANPYLGGTSNGYAHPSGTALHYDDVPCINGSLKGKKPPVASNGVTGKGKTLSSQPKKADPAAVVKRTGSNAAQYKYGKNRVEADAKRLQTKEEELLKRKEALRNRLAQLRKERKDLRAAIEVNAGRKPQAILEEKLKQLEEECRQKEAERVSLELELTEVKESLKKALAGGVTLGLAIEPKSGTSSPQSPVFRHRTLENSPISSCDTSDTEGPVPVNSAAVLKKSQAAPGSSPCRGHVLRKAKEWELKNGT [AFAP1]”, the “solubility change mitosis (log2)” value with HeLa Kyoto [1] stood at 0.451. Further, in the data set on HeLa Kyoto [2], the “solubility in G1/S (log2)” value was -0.611. Besides, the figures for the thermal stability score in the data set with HeLa Kyoto [3] (setting [5]) and with HeLa Kyoto [3] (cell cycle stage: mitosis) were -1.47 and -2.94, respectively. The results for the melting temperature in the data set with HeLa Kyoto [4] (cell cycle stage: G1/S) and with HeLa Kyoto [4] (cell cycle stage: mitosis) were 50.5 °C and 49.7 °C, respectively.
Take “MEELLRRELGCSSVRATGHSGGGCISQGRSYDTDQGRVFVKVNPKAEARRMFEGEMASLTAILKTNTVKVPKPIKVLDAPGGGSVLVMEHMDMRHLSSHAAKLGAQLADLHLDNKKLGEMRLKEAGTVGRGGGQEERPFVARFGFDVVTCCGYLPQVNDWQEDWVVFYARQRIQPQMDMVEKESGDREALQLWSALQLKIPDLFRDLEIIPALLHGDLWGGNVAEDSSGPVIFDPASFYGHSEYELAIAGMFGGFSSSFYSAYHGKIPKAPGFEKRLQLYQLFHYLNHWNHFGSGYRGSSLNIMRNLVK [FN3KRP]”: in the data set on HeLa Kyoto [1], the “solubility change mitosis (log2)” value was determined as 0.00242. Moreover, the “solubility in G1/S (log2)” value with HeLa Kyoto [2] is 0.12. Also, the thermal stability score was -1.05 in the data set on HeLa Kyoto [3] (setting [5]) and -2.45 in the data set with HeLa Kyoto [3] (cell cycle stage: mitosis). Besides, the melting temperature in the data set with HeLa Kyoto [4] (cell cycle stage: G1/S) was determined as 61.1 °C; with HeLa Kyoto [4] (cell cycle stage: mitosis), 58.3 °C.

For the origin of these results see the supplement of paper PMC5998384.
